Results published in article PMC9239266 (mBio, 2022).

B1: CopC ΔN50 (recombinant) (domain or fragment)
chain: AAGKIGAFLRKAVAAQSYGLMFANGKLFEATGDALEKRGQYGFSALQRLDGLSRRNLAAVEARLGALDSAERGLKERIMTGAWHFRHQSNAALDDGKTAAIASNHLLARESRSSGGNTFAGDKALLSNHDFVFFGVEFSGRGKQDKPLNHKHSTMDFGANAYVVPDTLPACRHGYLTLTDHFFNRVPGGREAEHQDFVGSFPQMGAETGRWIHEGKYRQNAPIFNYRDMKAAVALHLIEFLRDSKDAAFKAYVFDQAMQSGQALDRVLNSVFQAEFHIPRLMATTDYAKHPLRPMLLKEAVDSVNLPALSGLVSSKGDAVTAMWHAIDKGKDAVAAHLLGNWRFEAGDFASAPPGFYHELNYALSEHGASVYILDQFLSRGWAAVNAPFEHVNSGETMLDNAVKYGNREMAAALIKHGADRNLLSEWNGGKLDALLA
notes: also called CopC Δ50; source: E. coli BL21(DE3), purified (glutathione-Sepharose, GST removed by PreScission protease)

Legend:
[1] = biological target: B1; test: SEC; conditions: both partners purified
[2] = biological target: T1, recombinant CaM (human, UniProt P0DP23 1-149); test: SEC; conditions: both partners purified
T1 construct: also called calmodulin; Ca^2+-free CaM

| Binder | binding result [1] | binding result [2] |
| --- | --- | --- |
| caspase-7 p30 (C186A), ΔN23 (enzyme, human, UniProt P55210 24-303, looked up, also called CASP7 p30^C186A; caspase-7 p30 (C/A); source: E. coli BL21(DE3), purified (Ni-Sepharose)) AKPDRSSFVPSLFSKKKKNVTMRSIKTTRDRVPTYQYNMNFEKLGKCIIINNKNFDKVTGMGVRNGTDKDAEALFKCFRSLGFDVIVYNDCSCAKMQDLLKKASEEDHTNAACFACILLSHGEENVIYGKDGVTPIKDLTAHFRGDRCKTLLEKPKLFFIQAARGTELDDGIQADSGPINDTDANPRYKIPVEADFLFAYSTVPGYYSWRSPGRGSWFVQALCSILEEHGKDLEIMQILTRVNDRVARHFESQSDDPHFHEKKQIPCVVSMLTKELYFSQ | binds | – |
| B1 | – | binds |
